Laboratory results published in article PMC7615710, “ASPP2 binds to hepatitis C virus NS5A protein via an SH3 domain/PxxP motif-mediated interaction and potentiates infection” (The Journal of general virology, 2023).

B1: ASPP1 C-terminal domain (887-1090) (domain or fragment)
chain: NPLALLLDASLEGEFDLVQRIIYEVEDPSKPNDEGITPLHNAVCAGHHHIVKFLLDFGVNVNAADSDGWTPLHCAASCNSVHLCKQLVESGAAIFASTISDIETAADKCEEMEEGYIQCSQFLYGVQEKLGVMNKGVAYALWDYEAQNSDELSFHEGDALTILRRKDESETEWWWARLGDREGYVPKNLLGLYPRIKPRQRTLA
notes: also called ASPP1 CTD
B2: ASPP2 C-terminal domain (925-1128) (domain or fragment)
chain: NPLALLLDSSLEGEFDLVQRIIYEVDDPSLPNDEGITALHNAVCAGHTEIVKFLVQFGVNVNAADSDGWTPLHCAASCNNVQVCKFLVESGAAVFAMTYSDMQTAADKCEEMEEGYTQCSQFLYGVQEKMGIMNKGVIYALWDYEPQNDDELPMKEGDCMTIIHREDEDEIEWWWARLNDKEGYVPRNLLGLYPRIKPRQRSLA
notes: also called ASPP2 CTD

Key:
Assay in all cases: ITC; 450 or 300 uM NS5A PRR peptide (syringe) titrated to 30 uM ASPP CTD or SH3 domain (cell), 12 °C, 25 mM HEPES pH 7.5, 150 mM NaCl, 500 uM TCEP; 25 steps of 10 ul; AB hetero association model (SEDPHAT)
Details in all cases: both partners purified
[1] = target: T1, HCV [1a.1] NS5A PRR peptide (Hepatitis C virus genotype 1a (strain 1))
T1 construct: source: synthetic peptide, custom made (TUCF)

[2] = target: B1
[3] = target: B2

Row | Binder | Kd [1] [µM] | Kd [2] [µM] | Kd [3] [µM]
1 | B1 | 9.27 |  | 
2 | Fyn SH3 domain (85-142) (domain or fragment) not shown | 5.89 |  | 
3 | WLPPAKAPPIPPPRRKRTVVL (source: synthetic peptide, custom made (TUCF)) [HCV [1b.Con1] NS5A PRR peptide] |  | 6.7 | 0.0758
4 | B2 | 0.234 |  | 
5 | Grb2 SH3 domain (1-58) (domain or fragment) MEAIAKYDFKATADDELSFKRGDILKVLNEECDQNWYKAELNGKDGFIPKNYIEMKPH | 7.96 |  | 
6 | LASP1 SH3 domain (205-261) (domain or fragment) KRYRAVYDYSAADEDEVSFQDGDTIVNVQQIDDGWMYGTVERTGDTGMLPANYVEAI | 2.3 |  | 
7 | WLPPAKQPPVPSPRRKRTVQL (source: synthetic peptide, custom made (TUCF)) [HCV [4a.ED43] NS5A PRR peptide] |  | 42.8 | 0.741
8 | Lyn SH3 domain (65-122) (domain or fragment) GDIVVALYPYDGIHPDDLSFKKGEKMKVLEEHGEWWKAKSLLTKKEGFIPSNYVAKLN | 5.1 |  | 
9 | WLPPPKKAPTPPPRRRRTVGL (also called NS5A (2a); NS5A PRR peptide (JFH-1); source: synthetic peptide, custom made (TUCF)) [HCV [2a.JFH-1] NS5A PRR peptide] |  | 3.78 | 0.0424
